Results on one molecule are retold here after patent publication EP1126866B1 (The Regents of the University of California, dated 2007).

This experiment concerns the target rat cardiac SR Ca2+ ATPase (SERCA2a), endogenous in rat cardiomyocytes (rat, UniProt P11507 1-1043). Put plainly: cell-based or functional assay.

Chain of rat cardiac SR Ca2+ ATPase (SERCA2a), endogenous in rat cardiomyocytes (P11507 whole entry): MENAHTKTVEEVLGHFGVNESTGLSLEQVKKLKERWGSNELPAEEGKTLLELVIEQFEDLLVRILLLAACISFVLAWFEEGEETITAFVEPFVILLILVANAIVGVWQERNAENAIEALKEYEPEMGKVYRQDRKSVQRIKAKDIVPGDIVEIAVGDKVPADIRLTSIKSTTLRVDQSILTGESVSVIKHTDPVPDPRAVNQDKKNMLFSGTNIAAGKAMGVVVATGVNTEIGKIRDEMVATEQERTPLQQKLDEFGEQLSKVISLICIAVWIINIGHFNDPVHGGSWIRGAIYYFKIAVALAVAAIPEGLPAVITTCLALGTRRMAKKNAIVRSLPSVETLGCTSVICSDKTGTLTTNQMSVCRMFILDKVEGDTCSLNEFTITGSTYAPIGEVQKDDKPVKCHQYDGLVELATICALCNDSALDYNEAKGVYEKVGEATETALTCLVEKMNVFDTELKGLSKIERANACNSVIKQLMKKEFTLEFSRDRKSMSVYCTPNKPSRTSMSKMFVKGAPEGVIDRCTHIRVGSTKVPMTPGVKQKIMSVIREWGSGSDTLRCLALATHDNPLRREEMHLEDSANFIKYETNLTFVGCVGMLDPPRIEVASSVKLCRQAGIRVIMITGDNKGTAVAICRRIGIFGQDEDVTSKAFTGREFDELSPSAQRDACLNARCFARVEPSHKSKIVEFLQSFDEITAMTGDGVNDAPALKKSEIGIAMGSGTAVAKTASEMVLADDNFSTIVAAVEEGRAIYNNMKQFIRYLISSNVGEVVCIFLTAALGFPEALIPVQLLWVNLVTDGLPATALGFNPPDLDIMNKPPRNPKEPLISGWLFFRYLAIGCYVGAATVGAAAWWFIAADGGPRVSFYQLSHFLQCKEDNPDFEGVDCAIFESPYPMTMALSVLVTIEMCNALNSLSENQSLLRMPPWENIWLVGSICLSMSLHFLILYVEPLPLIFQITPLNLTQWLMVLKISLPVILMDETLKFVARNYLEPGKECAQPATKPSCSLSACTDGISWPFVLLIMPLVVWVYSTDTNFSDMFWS

B1: K3E/R14E double point mutation of PLB (other)
chain: MEEVQYLTRSAIREASTIEMPQQARQKLQNLFINFCLILICLLLICIIVMLL
With B1, the “EC50 of Ca2+ concentration at which the SR Ca2+ uptake activity is half-maximal (neonatal rat myocytes)” value was 110 nM and the “lowering of the EC50 of Ca2+ for SR Ca2+ uptake (adult rat myocytes)” value was determined as 36%.
